Consider one molecule from patent US20020147129A1.

Where no end group is shown, it is not given here. [ ]: non-standard residue; d: D form. Nle = CCCC[C@H](N)C(=O)O

For orientation: IC50 means the concentration that inhibits the measured activity by half.

The target in assay [1] is embryonic chicken AT4 receptor (chicken). The assay is described as follows: competition for [125I]Ang IV binding, E13 chicken chorioallantoic membranes.
The target of assay [2] is embryonic chicken Ang II receptor (chicken). In words: competition for 125I[Sar1Ile8]Ang II binding, E13 chicken chorioallantoic membranes.
Sequence of embryonic chicken Ang II receptor (chicken) (P79785 whole entry): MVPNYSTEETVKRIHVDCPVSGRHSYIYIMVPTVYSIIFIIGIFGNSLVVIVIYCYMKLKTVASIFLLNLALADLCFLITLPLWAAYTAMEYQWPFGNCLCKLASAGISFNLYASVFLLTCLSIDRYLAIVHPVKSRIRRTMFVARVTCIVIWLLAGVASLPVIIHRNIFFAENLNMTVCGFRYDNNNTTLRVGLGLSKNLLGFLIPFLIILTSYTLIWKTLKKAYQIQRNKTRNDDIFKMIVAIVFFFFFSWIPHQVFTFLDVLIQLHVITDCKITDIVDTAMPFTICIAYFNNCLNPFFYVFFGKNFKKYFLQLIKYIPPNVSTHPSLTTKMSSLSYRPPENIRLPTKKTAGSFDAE

Sequence of embryonic chicken AT4 receptor (chicken) (F1NNE7 entry or part of it): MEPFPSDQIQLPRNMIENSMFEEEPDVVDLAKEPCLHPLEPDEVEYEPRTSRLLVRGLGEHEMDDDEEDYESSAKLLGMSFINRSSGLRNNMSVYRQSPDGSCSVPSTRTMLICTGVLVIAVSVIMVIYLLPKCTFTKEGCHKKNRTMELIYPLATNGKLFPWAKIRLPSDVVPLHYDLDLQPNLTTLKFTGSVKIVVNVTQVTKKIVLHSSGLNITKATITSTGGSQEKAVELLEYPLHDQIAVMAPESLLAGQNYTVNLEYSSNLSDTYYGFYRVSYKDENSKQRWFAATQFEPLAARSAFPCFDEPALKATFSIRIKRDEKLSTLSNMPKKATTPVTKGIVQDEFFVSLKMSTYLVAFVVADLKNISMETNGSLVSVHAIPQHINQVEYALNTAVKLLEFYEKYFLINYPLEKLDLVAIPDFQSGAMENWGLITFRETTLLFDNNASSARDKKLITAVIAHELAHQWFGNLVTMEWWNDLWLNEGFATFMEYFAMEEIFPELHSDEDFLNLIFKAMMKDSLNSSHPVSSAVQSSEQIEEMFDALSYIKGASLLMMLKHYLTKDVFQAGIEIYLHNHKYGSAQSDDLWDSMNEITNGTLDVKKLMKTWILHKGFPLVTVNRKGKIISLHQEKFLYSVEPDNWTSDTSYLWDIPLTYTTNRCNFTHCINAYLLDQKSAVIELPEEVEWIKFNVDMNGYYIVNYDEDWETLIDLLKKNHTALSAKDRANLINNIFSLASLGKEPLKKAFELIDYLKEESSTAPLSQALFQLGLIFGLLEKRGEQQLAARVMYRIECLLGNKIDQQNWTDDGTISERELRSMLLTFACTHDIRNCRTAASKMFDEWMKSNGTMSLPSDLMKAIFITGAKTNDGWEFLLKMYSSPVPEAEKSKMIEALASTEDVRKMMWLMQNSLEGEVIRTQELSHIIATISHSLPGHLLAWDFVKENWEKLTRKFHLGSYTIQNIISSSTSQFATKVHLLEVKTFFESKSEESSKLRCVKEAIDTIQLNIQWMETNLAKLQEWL

For [Nle]YIHPF [Nle^1-AIV], the figures for the IC50 in assay [1] and in assay [2] were 0.043 µM and 8 µM, respectively.
